{
  "source": "patent US20220306744A1",
  "about": "(CRESCENDO BIOLOGICS, published 2022)",
  "binders": {"B1": {"name": "1.1a-4GS-1.57b (other)", "chain": "EVQLLESGGGSVQPGRSLRLSCAASGFTFDDHAMHWVRQAPGKGLEWVSGISWNSGSMGYADSVKDRFTISRDNAKSSLYLQMNSLRAEDTALYYCVREKGPGLTGSTADYYGLDVWGQGTMVTVSSGGGGSGGGGSGGGGSGGGGSQVQLVESGGGLVKPGGSLRLSCAASGFTFSDNSMTWMRQAPGKGLEWVSYISSGGGVIFYADSVKGRFTISRDNAKNSLYLQMNSLRADDTAVYYCAREAPLRLGESPHDAFDISGQGTMVTVSS"}, "B2": {"name": "1.77b-4GS-1.21a (other)", "chain": "EVQLVESGGGLVKPGGSLRLSCAASGFTFSDSSMTWMRQAPGKGLEWVSYISSGGGVKFYTDSVKGRFTISRDNAKNSLYLQMNSLRAEDTAVYYCAREAPLRLGESPHDAFDISGQGTMVTVSSGGGGSGGGGSGGGGSGGGGSEVQLVESGGGLVQPGRSLRLSCAASGFTFDDYAMHWVRQAPGKDLEWVSGISWNGGSMGYAASVKGRFTISRDNAKNSLYLQMNSLRAEDTALYYCVREKGPGLTGSTADYYGLDVWGQGTMVTVSS"}, "B3": {"name": "1.64b-4GS-1.1a (other)", "chain": "B2 chain with T61A, E89D, V150L, L156S, Y177H, D189G, G200S, A207D, G211D, N222S"}, "B4": {"name": "1.1b-4GS-1.1a (other)", "chain": "QVQLVESGGGLVKPGGSLRLSCAASGFTFSDYTMTWMRQAPGKGLEWVSYISTGGTIKYYTDSVKGRFTISRDNAKNSLYLQMNSLRADDTAVYYCAREAPLRLGESPHDAFDIWGQGTMVTVSSGGGGSGGGGSGGGGSGGGGSEVQLLESGGGSVQPGRSLRLSCAASGFTFDDHAMHWVRQAPGKGLEWVSGISWNSGSMGYADSVKDRFTISRDNAKSSLYLQMNSLRAEDTALYYCVREKGPGLTGSTADYYGLDVWGQGTMVTVSS", "notes": "Biparatopic VH-linker-VH"}, "B5": {"name": "1.92b-4GS-1.99a (other)", "chain": "EVQLVESGGGLVKPGGSLRLSCAASGFTFSDESMTWMRQAPGKGLEWVSYISSGGGVKFYADSVKGRFTISRDNAKNSLYLQMNSLRAEDTAVYYCAREAPLRLGESPHDAFDISGQGTMVTVSSGGGGSGGGGSGGGGSGGGGSEVQLVESGGGVVRPGGSLRLSCAASGFTFDDYAMSWVRQAPGKGLEWVSGITWNGGSTGYADSVKGRFTISRDNAKNSLYLQMNSLRAEDTALYYCVRDKYSYAWSYDGFDIWGQGTMVTVSS"}, "B6": {"name": "1.92b-4GS-1.103a (other)", "chain": "B5 chain with G211D, G254D"}, "B7": {"name": "1.1b-2GS-1.1a (other)", "chain": "QVQLVESGGGLVKPGGSLRLSCAASGFTFSDYTMTWMRQAPGKGLEWVSYISTGGTIKYYTDSVKGRFTISRDNAKNSLYLQMNSLRADDTAVYYCAREAPLRLGESPHDAFDIWGQGTMVTVSSGGGGSGGGGSEVQLLESGGGSVQPGRSLRLSCAASGFTFDDHAMHWVRQAPGKGLEWVSGISWNSGSMGYADSVKDRFTISRDNAKSSLYLQMNSLRAEDTALYYCVREKGPGLTGSTADYYGLDVWGQGTMVTVSS", "notes": "Biparatopic VH-linker-VH; His tag implied by the assays; not in the chain"}, "B8": {"name": "1.77b-1GS-1.21a (other)", "chain": "EVQLVESGGGLVKPGGSLRLSCAASGFTFSDSSMTWMRQAPGKGLEWVSYISSGGGVKFYTDSVKGRFTISRDNAKNSLYLQMNSLRAEDTAVYYCAREAPLRLGESPHDAFDISGQGTMVTVSSGGGGSEVQLVESGGGLVQPGRSLRLSCAASGFTFDDYAMHWVRQAPGKDLEWVSGISWNGGSMGYAASVKGRFTISRDNAKNSLYLQMNSLRAEDTALYYCVREKGPGLTGSTADYYGLDVWGQGTMVTVSS"}, "B9": {"name": "1.77b-2GS-1.21a (other)", "chain": "EVQLVESGGGLVKPGGSLRLSCAASGFTFSDSSMTWMRQAPGKGLEWVSYISSGGGVKFYTDSVKGRFTISRDNAKNSLYLQMNSLRAEDTAVYYCAREAPLRLGESPHDAFDISGQGTMVTVSSGGGGSGGGGSEVQLVESGGGLVQPGRSLRLSCAASGFTFDDYAMHWVRQAPGKDLEWVSGISWNGGSMGYAASVKGRFTISRDNAKNSLYLQMNSLRAEDTALYYCVREKGPGLTGSTADYYGLDVWGQGTMVTVSS"}, "B10": {"name": "1.77b-4GS-1.77b (other)", "chain": "EVQLVESGGGLVKPGGSLRLSCAASGFTFSDSSMTWMRQAPGKGLEWVSYISSGGGVKFYTDSVKGRFTISRDNAKNSLYLQMNSLRAEDTAVYYCAREAPLRLGESPHDAFDISGQGTMVTVSSGGGGSGGGGSGGGGSGGGGSEVQLVESGGGLVKPGGSLRLSCAASGFTFSDSSMTWMRQAPGKGLEWVSYISSGGGVKFYTDSVKGRFTISRDNAKNSLYLQMNSLRAEDTAVYYCAREAPLRLGESPHDAFDISGQGTMVTVSS"}, "B11": {"name": "1.33b (VHH)", "VHH": "QITLKESGGGLVKPGGSLRLSCAASGFTFSDYDMYWVRQAPGKGLEWVSYISRGGSVTYYADSVKGRFTISRDNAKNALYLQMNSLRAEDMAVYFCATEAPLRLGETPHAAFDIWGQGTMVTVSS"}, "B12": {"name": "1.40b (VHH)", "VHH": "EVQLVESGGGLVKPGGSLRLSCAASGFTFSDSSMSWIRQAPGRGLEWISYISSGGGIIYYTDSVKGRFTISRDNAKNSLYLQMNSLRVEDTAVYYCAKEAPLRLGESPHDAFDIWGHGTMVTVSS"}, "B13": {"name": "1.1b (VHH)", "VHH": "QVQLVESGGGLVKPGGSLRLSCAASGFTFSDYTMTWMRQAPGKGLEWVSYISTGGTIKYYTDSVKGRFTISRDNAKNSLYLQMNSLRADDTAVYYCAREAPLRLGESPHDAFDIWGQGTMVTVSS", "notes": "also called Humabody 1.1b"}},
  "note": "Substitutions are numbered along the chain they refer to.",
  "data": [
    {"target": "T1, human PD-1 expressed on cells (CHO TREX human PD1 cell line, full-length human PD-1 sequence) (human, UniProt Q15116 21-288)", "T1 sequence (Q15116 21-288)": "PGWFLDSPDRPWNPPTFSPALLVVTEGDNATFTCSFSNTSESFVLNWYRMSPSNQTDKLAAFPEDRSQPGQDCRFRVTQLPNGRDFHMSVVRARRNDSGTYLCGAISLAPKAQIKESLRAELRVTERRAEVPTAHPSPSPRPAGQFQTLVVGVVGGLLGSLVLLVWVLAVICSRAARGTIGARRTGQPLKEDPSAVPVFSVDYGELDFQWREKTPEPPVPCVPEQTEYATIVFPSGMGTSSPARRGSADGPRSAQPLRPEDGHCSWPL", "assay": "cell-based or functional assay", "units": {"EC50 (M), NFAT-Luciferase reporter gene assay": "M"}, "values": [
      {"binder": "B1", "EC50 (M), NFAT-Luciferase reporter gene assay": "3.9e-09"},
      {"binder": "B2", "EC50 (M), NFAT-Luciferase reporter gene assay": "3.2e-09"},
      {"binder": "B3", "EC50 (M), NFAT-Luciferase reporter gene assay": "3e-09"},
      {"binder": "B4", "EC50 (M), NFAT-Luciferase reporter gene assay": "8.5e-09"},
      {"binder": "B5", "EC50 (M), NFAT-Luciferase reporter gene assay": "1e-09"},
      {"binder": "B6", "EC50 (M), NFAT-Luciferase reporter gene assay": "1.2e-09"},
      {"binder": "B7", "EC50 (M), NFAT-Luciferase reporter gene assay": "7.2e-09"},
      {"binder": "B8", "EC50 (M), NFAT-Luciferase reporter gene assay": "2.3e-09"},
      {"binder": "B9", "EC50 (M), NFAT-Luciferase reporter gene assay": "2.1e-09"}
    ]},
    {"target": "T1, human PD-1 expressed on cells (CHO TREX …)", "assay": "cell-based or functional assay", "remark": "another data set of the same source", "units": {"EC50 uM, PathHunter Checkpoint assay (PD-1 signalling)": "µM", "Max. % increase in response over baseline, PathHunter Checkpoint assay": "%"}, "values": [
      {"binder": "B2", "EC50 uM, PathHunter Checkpoint assay (PD-1 signalling)": 0.0005, "Max. % increase in response over baseline, PathHunter Checkpoint assay": 253},
      {"binder": "B8", "EC50 uM, PathHunter Checkpoint assay (PD-1 signalling)": 0.00059, "Max. % increase in response over baseline, PathHunter Checkpoint assay": 1330},
      {"binder": "B10", "EC50 uM, PathHunter Checkpoint assay (PD-1 signalling)": 0.0002, "Max. % increase in response over baseline, PathHunter Checkpoint assay": 48.5}
    ]},
    {"target": "T1, human PD-1 expressed on cells (CHO TREX …)", "assay": "worded summary of the screens", "values": [
      {"binder": "B11", "binding result": "binds"},
      {"binder": "B12", "binding result": "binds"}
    ]},
    {"target": "T1, human PD-1 expressed on cells (CHO TREX …)", "assay": "FMAT: inhibition of human Fc tagged human PD-L1 (400 pM) binding to CHO human PD-1 cells", "experimental": "Purified VH were serially diluted in FMAT assay buffer and tested for binding to CHO human PD-1 cells as described above and for inhibition of human PD-L1/PD-L2 binding to CHO human PD-1 cells. All reagents and serially diluted VH were prepared in FMAT assay buffer. VH, buffer (total binding controls) or excess competitor (non-specific binding control) were incubated with 400 pM human Fc tagged human PD-L1 or 100 pM PDL-2, 4 nM anti human Fc-Alexa Fluor-488 and 2000 per well CHO human PD-1 DRAQ5 stained cells in a 384 well black clear-bottomed assay plates. Plates were incubated for 2 hours at room temperature then fluorescence measured in the FL2 (502 nm-537 nm) and FL5 (677-800 nm) channels on the Mirrorball plate reader (TTP) following excitation at 488 nm and 640 nm. Data was expressed as a % of the total binding control (i.e. % control) after subtraction of the background signal determined from the non-specific binding control wells. The results are shown in FIG. 5 and in Tables 8 and 9 below.", "units": {"IC50": "nM"}, "values": [
      {"binder": "B4", "IC50": 5.6},
      {"binder": "B13", "IC50": 23}
    ]},
    {"target": "T2, recombinant human PD-1 Fc chimera (human, UniProt Q15116 25-167)", "T2 construct": "Bought protein (R&D 1086-PD in the HTRF assay); also called human PD-1-hu Fc; huPD-1Fc; not shown: human Fc", "T2 sequence (Q15116 25-167 limits assumed, stated change not applied)": "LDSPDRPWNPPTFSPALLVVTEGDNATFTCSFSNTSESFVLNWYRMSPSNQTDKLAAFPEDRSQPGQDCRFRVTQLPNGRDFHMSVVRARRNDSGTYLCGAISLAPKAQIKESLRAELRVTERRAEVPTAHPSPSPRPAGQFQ", "assay": "SPR Biacore T200, single cycle kinetics, human PD-1-hu Fc amine coupled to CM5, 1:1 model", "experimental": "Binding kinetics of certain humabodies binding to human PD-1-hu Fc were measured by surface plasmon resonance (SPR) technology using Biacore T200 instrument (GE Healthcare). Recombinant human PD-1-hu Fc was immobilized by standard amine coupling to CM5 sensors chip (GE Healthcare) using 0.1 mg/ml solution of antigen in 10 mM sodium acetate at pH 5.5. For the reference flow cell, a blank immobilisation was carried out. Single cycle kinetics assays were used to study the interaction, a five point, three-fold dilution series of each Humabody® VH was made with a top concentration of 30 nM. The binding kinetics were followed by flowing the Humabody® VH over the chip surface in HBS EP+ buffer at a flow rate of 30 μl/min. The contact time for each of the association steps was 180 seconds and the dissociation step was varied between 1200-3600 seconds. The data was fitted to a 1:1 binding model after double reference subtraction using the Biacore T200 Evaluation software.", "units": {"Kd": "nM", "koff": "s⁻¹", "kon": "M⁻¹ s⁻¹"}, "values": [
      {"binder": "B4", "Kd": 0.035, "koff": "1.1e-05", "kon": 316000},
      {"binder": "B7", "Kd": 0.0346, "koff": "1.08e-05", "kon": 313000}
    ]}
  ]
}
